Data set [1] in a line: SPR (Biacore) Protein A mAb capture, Compound A injected. Particulars: 37° C., binding to Compound A, for rank ordering only. On the procedure: The binding of hybridoma expressed 26D5 parent mAb (VH SEQ ID NO: 83 and VL SEQ ID NO: 98 in IgG1 f format)(P1-072224) and affinity matured mAbs to Compound A was examined by SPR (Biacore™) using a protein A capture method. The running buffer was 1×PBS (phosphate buffered saline, pH 7.4) with 0.05% Tween 20 and 2% DMSO. Binding experiments were carried out at 37° C. Protein A was coated on a CM5 S-series sensor chip (Cytiva, Cat. No. 29149603) at high density (2000+ RUs of protein A). The immobilization of protein A was carried out using the standard amine coupling immobilization procedure recommended by the manufacturer. The affinity matured antibody was then captured at a concentration of 2 ug/mL on the protein A surface at a flow rate of 3 uL/min for 2 minutes. Compound A was then injected over the captured antibody at concentrations spanning 100-3 nM (100, 50, 25, 12.5, 6.25, 3.125 nM) (FIG. 10) and for screening concentrations spanning 100-3 nM (100, 33, 11 nM) for 2 minutes at a flow rate of 100 uL/min and allowed to dissociate for at least 450 seconds. The chip surface was regenerated after each cycle with a 40 second pulse of 10 mM Glycine, pH 1.5. Background binding to the protein A surface alone was used to subtract non-specific binding. All experiments were run on a Biacore T200 surface plasmon resonance instrument using Biacore T200 Control software v. 2. Data analysis was performed using Biacore T200 evaluation software v 3.1. Apparent affinities were determined for rank ordering only since dissociation rates were too slow to be measured by Biacore. The names of the mAbs in Table 10 refer to mAbs having the H and L chain sequences of the corresponding Fabs in Table 3 in an IgG1f format.

Data set [2] can be described thus: Competitive TR-FRET assay modified for mAbs and Fabs (T0, T24, T48). The format is binding. Particulars: 37° C.; for T24 hr IC50 shift: IC50 shift at 24 hr relative to T0; for T48 hr IC50 shift: IC50 shift at 48 hr relative to T0. The procedure:
A competitive TR-FRET (time-resolved fluorescence resonance energy transfer) assay was developed to rank-order the dissociation of α-Compound A mAbs from Compound A as equilibrium is reached at 37° C. The assay buffer was HBS-N (10 mM HEPES, 150 mM NaCl, pH 7.4; GE Healthcare), 0.1% (w/v) BSA (bovine serum albumin; Sigma), 2% DMSO (dimethyl sulfoxide; Sigma). All reagents were prepared in assay buffer and dispensed in equal volumes into white 384 microplates with final volume of 20 μl per well at the following final concentrations: 4 nM COMPOUND 5, the biotinylated analog of COMPOUND 2, a 100 0.1 nM 7-pt titration of human α-Compound A antibodies, 0.1 nM europium-labeled α-mouse IgG (LANCE Eu-W1024; PerkinElmer), 5 nM streptavidin-D2 (Cisbio), and 4 nM mAb 26D5 VH_A10G_Y33A_S53P_M89V_G95A; VK_W32N_H38Q (P1-075621, the second-round optimization parent 26D5-295-B08 formatted with mouse IgG Fc). COMPOUND 5 and α-Compound A antibody titrations were added first to the microplate, and were subjected to an initial incubation at 37° C., 1000 rpm, for one hour to facilitate antibody binding to the compound. After the initial incubation period, the europium α-mouse IgG, streptavidin-D2, and 26D5-mouse IgG (P1-075621) were added sequentially, then the plate was returned to 37° C., 1000 rpm incubation. Microplates were read using a Perkin Elmer EnVision plate reader, and the measured FRET signal was defined as [665 nm]/[620 nm]*10,000. Microplates were read at 30 minutes (T0) and after 24 hour (T24) intervals. For each antibody titration, the FRET signal was converted to % Inhibition relative to wells without α-Compound A antibody: (100 ((FRET at [antibody concentration]/FRET at 0 nM)*100). The % inhibition antibody titrations were plotted using TIBCO Spotfire (v.7), and the IC50 was determined using a 4-parameter model curve fit. The IC50s at each timepoint were reported, as well as the IC50 curve shift relative to T0. An IC50 curve shift indicated α-Compound A antibody dissociation from the biotinylated compound as the assay reached equilibrium, which subsequently allowed 26D5-mouse IgG1 (P1-075621) competitor to bind and generate the FRET signal detected in the assay.
The competitive TR-FRET assay defined above was also modified to assess optimized 26D5 antibody progeny that were reformatted as Fabs. The α-Compound A antibody and Fab titration series were extended to 250 0.244 nM (11-pt titration), and replicates of each concentration were collected in quadruplicate. The assay incubation was extended to include an additional 48 hr timepoint to ensure equilibrium was reached, and T48 hr IC50 and IC50 shifts were reported. The % inhibition titrations were plotted in Graphpad Prism (v.8) and fit to a 4-parameter model. All other experimental setup conditions were otherwise identical to the antibody TF-FRET assay.
Competitive FRET data collected for affinity-optimized α-Compound A 26D5 progeny comparing human antibodies and Fabs are shown in FIG. 14 and Table 13. Each panel represents a single α-Compound A sequence, with antibody (mAb, solid lines, circles) and Fab (dotted lines, triangles) formats overlaid. […] The names of the mAbs/Fabs in Table 13 refer to the corresponding sequences in Tables 1-3. All mAbs listed in Table 13 were in a human IgG1f/LC kappa format.

Where [3] appears, read: apparent affinity, read-out: KD.
The mark [4] stands for this setting: read at 30 minutes (T0), competitor 26D5-mouse IgG (P1-075621), read-out: T0 IC50.

Read-outs that look alike come from different tables or passages of the source.

B1: 26D5-75214-343-F06-mAb: human IgG1f/kappa mAb; VH SEQ ID NO: 53, VL SEQ ID NO: 85 (antibody, V domains shown)
VH: EVQLVESGGGLIQPGGSLRLSCAASGFTVSSNAMSWVRQAPGKGLEWVSFIYPGGRTYYADSVKGRFTISRDNSKNTLYLQMNSLRAEDTAVYYCARAGFGGPDYWGQGTLVTVSS
VL: DIQMTQSPSSVSASVGDRVTITCRASQGISSNLAWYQQKPGKAPKLLIYAASSLQSGVPSRFSGSGSGTDFTLTISSLQPEDFATYYCQQANEFPLTFGGGTKVEIK
Regarding B1, the Kd was less than 0.05 nM in data set [1] (setting [3]) and less than 5e-05 s⁻¹ in data set [1] (apparent). Besides, the “Ka” value in data set [1] (apparent) worked out at 1.2e+06 M⁻¹ s⁻¹. Moreover, the IC50 is 2.5 nM in data set [2] (24 hr, read-out: T24 hr IC50); 2.7 nM in data set [2] (48 hr, read-out: T48 hr IC50); 1.3 nM in data set [2] (setting [4]). Also, in data set [2], the “T24 hr IC50 shift” value is listed as 1.3 nM. Also, the “T48 hr IC50 shift” value in data set [2] was 1.4 nM.

B2: 26D5-75203-343-B09-mAb: human IgG1f/kappa mAb; VH SEQ ID NO: 54, VL SEQ ID NO: 87 (antibody, V domains shown)
VH: EVQLVESGGGLIQPGGSLRLSCAASGFTVSSNAMSWVRQAPGKGLEWVSYIYPGGRTYYADSVKGRFTISRDNSKNTLYLQMNSLRAEDTAVYYCARAGFGGGDYWGQGTLVTVSS
VL: DIQMTQSPSSVSASVGDRVTITCRASQGISSNLAWYQQKPGKAPKLLIYAASTLQSGVPSRFSGSGSGTDFTLTISSLQPEDFATYYCQQANEFPLTFGGGTKVEIK
As for B2, the Kd in data set [1] (setting [3]) is less than 0.05 nM; in data set [1] (apparent), less than 5e-05 s⁻¹. Further, the “Ka” value in data set [1] (apparent) worked out at 1.2e+06 M⁻¹ s⁻¹. Besides, the IC50 was found to be 3 nM in data set [2] (24 hr, read-out: T24 hr IC50); 3.1 nM in data set [2] (48 hr, read-out: T48 hr IC50); 2.6 nM in data set [2] (setting [4]). For the same molecule, the “T24 hr IC50 shift” value in data set [2] was 0.4 nM. In addition, the “T48 hr IC50 shift” value in data set [2] is on record as 0.5 nM.

B3: 26D5-75202-343-A09-mAb: human IgG1f/kappa mAb; VH SEQ ID NO: 54, VL SEQ ID NO: 86 (antibody, V domains shown)
VH: EVQLVESGGGLIQPGGSLRLSCAASGFTVSSNAMSWVRQAPGKGLEWVSYIYPGGRTYYADSVKGRFTISRDNSKNTLYLQMNSLRAEDTAVYYCARAGFGGGDYWGQGTLVTVSS
VL: DIQMTQSPSSVSASVGDRVTITCRASQGIYSNLAWYQQKPGKAPKLLIYAASSLQSGVPSRFSGSGSGTDFTLTISSLQPEDFATYYCQQANEFPLTFGGGTKVEIK
Regarding B3, the figures for the Kd in data set [1] (setting [3]) and in data set [1] (apparent) were less than 0.09 nM and less than 5e-05 s⁻¹, respectively. Further, in data set [1] (apparent), the “Ka” value is 590000 M⁻¹ s⁻¹. Moreover, the IC50 in data set [2] (24 hr, read-out: T24 hr IC50) was found to be 2.5 nM; in data set [2] (48 hr, read-out: T48 hr IC50) it was 2.9 nM; in data set [2] (setting [4]), 1.4 nM. Further, in data set [2], the “T24 hr IC50 shift” value came out at 1.1 nM. Besides, in data set [2], the “T48 hr IC50 shift” value worked out at 1.5 nM.

Source of the values: patent US12065505B2, “Antibodies and antigen binding peptides for factor XIa inhibitors and uses thereof” (Bristol-Myers Squibb Company, priority 2021, dated 2024).
